The assay deals with kinase domain of BRAF^WT (human, UniProt P15056 457-717). As to the kind of experiment: other fluorescence titration.

Ends that are not written are not given here.

Chain of kinase domain of BRAF^WT (P15056 whole entry, looked up, the tested form may be a part): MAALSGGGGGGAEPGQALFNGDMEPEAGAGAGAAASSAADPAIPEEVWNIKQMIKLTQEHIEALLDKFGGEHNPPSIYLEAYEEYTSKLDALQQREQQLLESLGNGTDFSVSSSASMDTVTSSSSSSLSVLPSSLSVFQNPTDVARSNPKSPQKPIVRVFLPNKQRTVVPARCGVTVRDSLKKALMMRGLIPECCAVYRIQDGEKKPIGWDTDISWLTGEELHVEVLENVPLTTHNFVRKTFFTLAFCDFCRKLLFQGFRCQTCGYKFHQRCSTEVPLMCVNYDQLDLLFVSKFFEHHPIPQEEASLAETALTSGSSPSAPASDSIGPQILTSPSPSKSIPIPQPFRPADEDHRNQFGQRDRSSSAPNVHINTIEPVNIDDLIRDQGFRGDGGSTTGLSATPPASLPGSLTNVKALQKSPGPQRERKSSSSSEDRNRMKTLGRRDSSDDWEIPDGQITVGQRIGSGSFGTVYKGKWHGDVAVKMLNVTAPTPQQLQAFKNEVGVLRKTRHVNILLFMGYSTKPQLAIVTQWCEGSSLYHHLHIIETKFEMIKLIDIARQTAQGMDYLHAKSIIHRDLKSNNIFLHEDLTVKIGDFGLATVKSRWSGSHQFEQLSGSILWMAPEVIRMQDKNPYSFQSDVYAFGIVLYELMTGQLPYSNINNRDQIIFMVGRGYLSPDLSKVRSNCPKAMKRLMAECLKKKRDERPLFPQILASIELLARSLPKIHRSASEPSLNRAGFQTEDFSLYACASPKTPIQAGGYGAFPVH

With TRHVNILLFM (also: Cy3 label, end not given here) [Braftide-Cy3], the Kd is 6.69 µM.

The record behind these values is article PMC6733264 (ACS chemical biology, 2019).
